Laboratory results reported in the supplement of paper PMC10567573.
± gives the standard deviation.

Assay: protein stability index of a GFP-peptide fusion (GPS, HEK-293T) (PSI 1-6); higher = more stable
[1] = treatment: DMSO, c terminus: a fixed tail appended
[2] = treatment: MLN4924 1 uM, 8 h, c terminus: a fixed tail appended
[3] = treatment: DMSO, c terminus: native
[4] = treatment: MLN4924 1 uM, 8 h, c terminus: native
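Also: 24-mer peptide tiles fused after GFP, lentivirally expressed, FACS-sorted into six equal bins by GFP/DsRed ratio, decoded by Illumina sequencing, PSI is the read-weighted mean bin number.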

Sequence	protein stability index [1]	protein stability index [2]	protein stability index [3]	protein stability index [4]
FSEEDEEETTSQDWGTPRELTFSY [RTN2]	4.22 ± 0.15	4.22 ± 0.49	–	–
SVFLLTLSIAFICCAQVKVSHLL [PHTF1]	–	–	3.3 ± 0.35	3.23 ± 0.53
SSKLVTKKAPQPAKPRLAERMTTR [HDAC6]	4.32 ± 0.14	4.47 ± 0.38	–	–
AAGRVCRPPGPAGTEQSRGLGHGS [CPOX]	4.44 ± 0.25	4.53 ± 0.4	–	–
PRALIFSTDDFFFREDGAYEFNPD [N4BP2L1]	2.95 ± 0.41	3.66 ± 0.48	–	–
LVTTHHLMVHGNERFIQYLASRNT [SNAP91]	2.18 ± 0.17	2.07 ± 0.42	–	–
MNARGLGSELKDSIPVTELSASGP [POMP]	4.78 ± 0.34	4.62 ± 0.23	–	–
MLGYKRHLALHAASSGDLTCGVCA [PLAGL1]	2.53 ± 0.23	2.73 ± 0.4	–	–
DLCPPIGRRAATALLWLSCSIALL [GNAS]	2.59 ± 0.63	2.19 ± 0.28	–	–
DFITLYQMASQSSASHYKLQVIKA [M1AP]	2.63 ± 0.3	2.44 ± 0.43	–	–
EFFGSASQPAVELVSGSQSALGPP [CLINT1]	3.96 ± 0.11	3.92 ± 0.51	–	–
ELEGTEELCCVAELDNPMQQKWTK [C2CD2L]	4.58 ± 0.45	4.77 ± 0.28	–	–
PVRPVSRGCLHSHGLQEGKDLFTQ [CDC25A]	3.15 ± 0.33	3.21 ± 0.13	–	–
GDRAGDASKDILLGPWDMVLAQG [SCARA5]	–	–	2.76 ± 0.64	2.69 ± 0.54
SGGGSTSAAGIEARSRALRRRWCP [SPACA3]	3.95 ± 0.12	4 ± 0.13	–	–
DSKHVVLPVDDDSDLNVVASFDRR [RBBP5]	4.73 ± 0.39	5.21 ± 0.23	–	–
TDAGKAFCMFYAVLGIPLTLVMFQ [KCNK9]	3.35 ± 0.4	3.06 ± 0.31	–	–
MECYDIYSKTWTKQPDLTMVRKIG [GAN]	2.14 ± 0.34	2.66 ± 0.23	–	–
QDLDSRLRAGSSEFDSEHNLTSNE [RASAL3]	5.52 ± 0.29	5.42 ± 0.19	–	–
EIVGNLGEGTFGKVVECLDHARGK [CLK3]	3.81 ± 0.1	3.97 ± 0.29	–	–
EDEGFVREEEDRALPENEFKKQIW [KCNA4]	5.18 ± 0.17	5.19 ± 0.2	–	–
WVSTQLQATCNVHKSAFNDWFSGH [FADS1]	2.75 ± 0.82	2.43 ± 0.54	–	–

Sequence	protein stability index [1]	protein stability index [2]	protein stability index [3]	protein stability index [4]
RFIIIFEQIRFVMKAHSFVRENVP [SOAT1]	2.51 ± 0.39	2.65 ± 0.56	–	–
RPLCAQGDWHSPTLIREKSFGACL [ELOA2]	2.53 ± 0.19	2.6 ± 0.21	–	–
QNPTASYYNVVLLRYQFSRPGPQS [FCHO1]	2.44 ± 0.46	2.41 ± 0.27	–	–
IFRCFCPVFLHSQMLWELVLLGEP [DENND6A]	3.17 ± 0.39	2.87 ± 0.33	–	–
VKMDQKSKHLKEMYQELMEMCHKP [TRIM43]	3.03 ± 0.15	3.13 ± 0.28	–	–
IANYELVYKDGEHGEEQRITIEPG [PTPRD]	4.64 ± 0.34	4.8 ± 0.28	–	–
VNKYYPPDFNPEKHGSLNRYHNSH [YJU2B]	3.41 ± 0.21	3.21 ± 0.39	–	–
EPLMTNKLSETFLQIYQYVPKDQR [DLC1]	3.05 ± 0.33	3.47 ± 0.47	–	–
QYFVVDPMAEYNMPQYILREFKVT [PTPRD]	2.48 ± 0.56	2.15 ± 0.16	–	–
TYKRFEGLTQRGSIPTYMKAGKL [STK38L]	–	–	2.26 ± 0.18	2.41 ± 0.19
VIRKNIVKKCLELFSELAEDKENY [HSP90AB1]	2.33 ± 0.046	–	–	–
PVRCAGDWLPRGLGWGGRGAAVCA [ALG2]	2.57 ± 0.36	2.25 ± 0.27	–	–
VSRRAAAAAATVLLRTARVRRECW [SLC19A2]	2.58 ± 0.17	2.99 ± 0.36	–	–
KTLYVGNLSRDVTEALILQLFSQI [TIA1]	2.6 ± 0.51	2.73 ± 0.42	–	–
EMPYNIWCDGCKNHIGMGVRYNAE [YJU2B]	2.27 ± 0.32	2.49 ± 0.25	–	–
VGGEAVEVEEVENVQTEFPGEDEN [TRIM55]	5.74 ± 0.2	5.61 ± 0.34	–	–
YQGPGTRRLQEVLGVQTGGPGGRR [DYRK1B]	3.59 ± 0.39	3.94 ± 0.36	–	–
SKQSPPMASSPIQPRKGGADWLGL [FBF1]	3.23 ± 0.47	3.48 ± 0.42	–	–
LLIFGKELSAIGSDTTPLPSWAAL [SNX8]	2.42 ± 0.37	2.13 ± 0.28	–	–
YLIMLPFRFTYYTILDIFRFALRF [FAF2]	3.33 ± 0.26	3.25 ± 0.18	–	–
PPPSAPASEYCPGKLSWGTMARAL [WDR88]	3.02 ± 0.24	2.97 ± 0.4	–	–
GPFRTLLQFLYTGQLDEKEKDLVG [RHOBTB1]	2 ± 0.054	2.49 ± 0.3	–	–

Sequence	protein stability index [1]	protein stability index [2]	protein stability index [3]	protein stability index [4]
SEDQKRLKQAKELDRERAAANEQL [CHCHD3]	5.48 ± 0.17	5.57 ± 0.21	–	–
HTGERPYECTVCKKRFTRRSHLIG [ZNF449]	2.67 ± 0.36	3.17 ± 0.88	–	–
YRSLGSVQAPSYGARPVSSAASVY [KRT18]	3.33 ± 0.23	3.17 ± 0.097	–	–
KILGYLNTNVLSRDLIPPHVNFSH [SLC6A17]	2.2 ± 0.33	2.375 ± 0.022	–	–
LNVRGGKPDDITVLLSIVAEYTD [PPTC7]	–	–	3.45 ± 0.95	2.5 ± 0.44
LPVYLKKDPAYFYGYVYFRQVRDK [DENND6A]	2.59 ± 0.57	2.53 ± 0.47	–	–
FSVSSTSRRIYRCRNCINLQNEAQ [IQUB]	2.02 ± 0.19	2.34 ± 0.34	–	–
MFLHPVDYGRKAEELLWRKVYYEV [SMG5]	2.45 ± 0.59	2.11 ± 0.22	–	–
ELFPTGKQLEPLVAPLADGKVAVG [VPS39]	3.84 ± 0.25	3.8 ± 0.24	–	–
GKNNEFSRLVAGEYLSFFDFSGLT [PSD2]	2.13 ± 0.41	2.13 ± 0.32	–	–
KGERGEDSSEEKHLEEPGETQNAF [CHGB]	5.61 ± 0.19	5.62 ± 0.13	–	–
YEHYERVENGDFNWIVPGKFLAFS [CDC14A]	2.34 ± 0.16	2.26 ± 0.29	–	–
QFHKQIAVMRGQILNLTQALKDNK [PI4K2A]	2.5 ± 0.36	2.8 ± 0.35	–	–
LSKQAKFAYKDEYEKFKLYLTIIL [TMEM120A]	2.61 ± 0.36	2.48 ± 0.54	–	–
AQQLLREFEEATGEAGWGAGEGRL [FOXJ1]	4.74 ± 0.16	4.66 ± 0.34	–	–
PSGNNGSVNWRTGSFHGPGHISLR [DLC1]	3.09 ± 0.18	3.01 ± 0.19	–	–
QKLIVNLKPEKSYSFVLTNRGNSA [PTPRD]	2.58 ± 0.36	2.58 ± 0.13	–	–
TRILKHSPESSRGQCGENLAWASY [GLIPR2]	2.38 ± 0.44	2.38 ± 0.18	–	–
VCRARPRACSHLIRLMQRCWQGDP [RIPK4]	2.21 ± 1.1	2.86 ± 0.35	–	–
TWKVLFCSMSATFTLNFFRSGIQF [CLCN6]	3.25 ± 0.11	3.2 ± 0.73	–	–
QLPIDRGGGEGKAMYIDTEGTFRP [RAD51]	4.16 ± 0.15	4.05 ± 0.24	–	–
